Experimental data: the supplement of paper PMC10567573
± gives the standard deviation.

Assay: protein stability index of a GFP-peptide fusion (GPS, HEK-293T) (PSI 1-6); higher = more stable
[1] = treatment: DMSO, c terminus: a fixed tail appended
[2] = treatment: MLN4924 1 uM, 8 h, c terminus: a fixed tail appended
[3] = treatment: DMSO, c terminus: native
[4] = treatment: MLN4924 1 uM, 8 h, c terminus: native
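Further: 24-mer peptide tiles fused after GFP, lentivirally expressed, FACS-sorted into six equal bins by GFP/DsRed ratio, decoded by Illumina sequencing, PSI is the read-weighted mean bin number.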

Sequence | protein stability index [1] | protein stability index [2] | protein stability index [3] | protein stability index [4]
GWLSVSDDLTSVTNHGYRVQVENP [TRIM35] | 3.12 ± 0.17 | 3.24 ± 0.18 | – | –
VAALREEQKVLSRLVESLSTQIRA [RASAL3] | 2.34 ± 0.35 | 2.38 ± 0.11 | – | –
EEYTTGMADCILVNSQFTAAVFKE [ALG2] | 3.21 ± 0.27 | 3.26 ± 0.24 | – | –
VRKANRIKECLSKGTFSDVTFKLD [RHOBTB1] | 3.33 ± 0.21 | 3.43 ± 0.19 | – | –
FFRSLLPNYTMEGERPEEGVAGGL [TCF25] | 3.09 ± 0.32 | 3.52 ± 0.15 | – | –
ELDYLMDVLVGTQALERPPGPGR [SERTAD1] | – | – | 2.23 ± 0.26 | 2.67 ± 0.58
QEKKILELEKLAEKNIILEEKIQV [MTUS2] | 4.3 ± 0.28 | 4.29 ± 0.17 | – | –
ESALIALDSEKPKKLRFHPKQLYF [EHMT1] | 2.38 ± 0.48 | 2.54 ± 0.19 | – | –
VLQSVRELSRSRKLYGQRERVWAL [FCHSD1] | 2.06 ± 0.24 | 2.37 ± 0.25 | – | –
SLKAPGARGPGPEGGGGGSYFSGQ [JUNB] | 4.41 ± 0.45 | 4.67 ± 0.24 | – | –
GVITTTPTPPGQYFYPRGGGSGGG [JUNB] | 4.14 ± 0.16 | 4.26 ± 0.095 | – | –
DTRSGFWYVCRTQGVEGDHCVTSD [TRIM35] | 2.89 ± 0.31 | 3.08 ± 0.34 | – | –
HMGTNVIVANTMPTHLSNGQMSTP [HNF4A] | 3.6 ± 0.18 | 3.66 ± 0.33 | – | –
LTNIWMARTCAKQNINAPAPATTS [C22orf31] | 2.51 ± 0.27 | 2.59 ± 0.15 | – | –
NDRLYAIGGNHLKGFSHLDVMLVE [KLHL14] | 2.35 ± 0.33 | 2.58 ± 0.17 | – | –
GVGKSAMTMQFISHRFPEDHDPTI [RIT1] | 3.4 ± 0.24 | 3.46 ± 0.37 | – | –
HHHLHKTLREITDQEHNVAALKQA [TEKT4] | 4.35 ± 0.13 | 4.52 ± 0.11 | – | –
FFYTAATNNPRFDKMEGNPICVQI [CRY1] | 2.92 ± 0.33 | 2.83 ± 0.67 | – | –
ASVVLPARELQEALPEAPAPLLPH [BCL2L13] | 4.34 ± 0.17 | 4.35 ± 0.22 | – | –
SPPVPGPSAALTTMQLFSKQNPSR [FBXO28] | 4.22 ± 0.42 | 4.33 ± 0.23 | – | –
ANLAASGGYAIAVVLLQGAELLLA [TSPAN10] | 2.97 ± 0.54 | 3.05 ± 0.92 | – | –
EDIVFETDHILESLYRDIRDIQDE [STX11] | 4.08 ± 0.12 | 4.31 ± 0.14 | – | –

Sequence | protein stability index [1] | protein stability index [2] | protein stability index [3] | protein stability index [4]
TVSTMYYLWMCSTLALLLNFLACL [SCAMP3] | 3.13 ± 0.22 | 3.03 ± 0.63 | – | –
SHCSQLTTLSFYGNSISISALQSL [PRAME] | 2.87 ± 0.72 | 2.78 ± 0.58 | – | –
GDPEEPLTGFSWRGGSDPETTGIQ [ATL3] | 5.13 ± 0.22 | 5.17 ± 0.12 | – | –
RTRRLGNMKNGANDVKHHRWFRSV [PRKX] | 3.17 ± 0.39 | 3.14 ± 0.38 | – | –
HGDSQQTHLLKQGRSSMGTGLSGG [CRY1] | 4.36 ± 0.16 | 4.43 ± 0.14 | – | –
NVPVDDSLVKELLRMCSHGEGKIN [EFHC1] | 3.39 ± 0.2 | 3.55 ± 0.11 | – | –
LPPIPHVFSAGTGSAILPHFHHAF [PLAGL1] | 2.15 ± 0.28 | 2.11 ± 0.1 | – | –
FTKVVQPQEEIATKKLRLTKPSKS [INTS4] | 3.92 ± 0.57 | 4.07 ± 0.3 | – | –
HKSHRGMTPAEAEMHFLENAKKLS [EPB41L3] | 4.38 ± 0.21 | 4.25 ± 0.47 | – | –
LHVWQITWAMRQRGTHAVVGVATA [SPSB1] | 2.58 ± 0.31 | 2.51 ± 0.64 | – | –
TATMKDLEAEVKDTTRVENLIKSE [R3HDM1] | 5.36 ± 0.17 | 5.46 ± 0.23 | – | –
KGKDNKHPMYRRLVHSAVDVPTIQ [ZMYND11] | 3.71 ± 0.18 | 3.71 ± 0.28 | – | –
SKHLKEMYQELMEMCHKPDVELLQ [TRIM43] | 2.71 ± 0.26 | 2.7 ± 0.51 | – | –
FGGAAAVAILAVAIGVALALRKK [BCL2L13] | – | – | 2.99 ± 0.2 | 2.81 ± 0.21
ESFGQNYPEEADGTLDCISMALTC [RBBP5] | 3.72 ± 0.26 | 3.53 ± 0.18 | – | –
TPWALALLRTFDAGEFTGWEKVGS [RIPK4] | 2.29 ± 0.61 | 1.49 ± 0.13 | – | –
LFAFMLVYPKEFHLNRGNHEDHMV [PPEF2] | 3.03 ± 1 | 2.32 ± 0.35 | – | –
CGINANDVKKLEEAGFHTVEAVAY [RAD51] | 2.58 ± 0.25 | 2.47 ± 0.22 | – | –
KGAAAAAAASGAAGGGGGGAGAGA [INTS3] | 5.26 ± 0.42 | 5.3 ± 0.27 | – | –
LFVGVDCFLLTAMAYDQFLAICRP [OR3A1] | 3.63 ± 0.6 | 3.13 ± 0.071 | – | –
NVNVTLLSKQAKFAYKDEYEKFKL [TMEM120A] | 2.9 ± 0.15 | 2.82 ± 0.23 | – | –
HAASDPSSSSGRLSEPDPSHTLEE [SMOC2] | 5.31 ± 0.29 | 5.43 ± 0.15 | – | –

Sequence | protein stability index [1] | protein stability index [2] | protein stability index [3] | protein stability index [4]
EGRLRYPSRREPPPRRSRSRSHDR [CLK3] | 5.33 ± 0.31 | 5.45 ± 0.1 | – | –
WEQKVLVIVMTTRFEEGGRRKCGQ [PTPN9] | 2.28 ± 0.2 | 2.28 ± 0.34 | – | –
GPGYWMCCHRSQKGFPGCKLGLHD [FBXO34] | 2.21 ± 0.44 | 2.11 ± 0.56 | – | –
GKWQQQGDLQDTKENREEARFQDK [CHGB] | 5.44 ± 0.36 | 5.33 ± 0.16 | – | –
IVTTVTTVQSRPRIDGKLDSPSRS [C2CD2L] | 3.4 ± 0.19 | 3.49 ± 0.27 | – | –
QADLLAHLVPEPDRLEEQLPWLSL [DNAAF3] | 2.34 ± 0.25 | 2.48 ± 0.28 | – | –
NERDSSEPGNFIPLFTPQSPVTAT [CDC25A] | 4.65 ± 0.48 | 4.65 ± 0.33 | – | –
PENLLLASKSKGAAVKLADFGLAI [CAMK2D] | 2.53 ± 0.38 | 2.13 ± 0.18 | – | –
PYHVDSLLQLSDACRFQEDQEMAR [TCF25] | 4.36 ± 0.17 | 4.04 ± 0.21 | – | –
GLEAASVYSDHTNTNNLTFLMDLP [RNF180] | 3.13 ± 0.26 | 3.22 ± 0.3 | – | –
FDDCLYALCVVDTIKRSSQTGEWQ [GFOD1] | 2.09 ± 0.42 | 2.29 ± 0.25 | – | –
QGLKLYAVEISDHPGEHEVGEPEF [CPXM2] | 4.5 ± 0.55 | 5.11 ± 0.06 | – | –
LVGNKSDLRHLRAVPTDEARAFAE [RAB11A] | 4.29 ± 0.34 | 4.39 ± 0.21 | – | –
GGTLAEFIQKRCNSLLEEETILHF [NEK8] | 1.97 ± 0.24 | 1.99 ± 0.43 | – | –
EPANLDILDTAGQAEFTAMRDQYM [RIT1] | 4.83 ± 0.24 | 4.67 ± 0.2 | – | –
IDQWKNKIWPEIKVPRPDALDNES [RETREG3] | 4.14 ± 0.24 | 4.3 ± 0.27 | – | –
YIEMQTDPANCDYVIVSGAQRKEE [YJU2B] | 4.2 ± 0.2 | 4.57 ± 0.36 | – | –
PLVTPPQSPVSPQPPAITQVHRQG [SMTNL2] | 4.56 ± 0.35 | 4.58 ± 0.053 | – | –
WEISDDYPSLQAMGWFNNEVGSMK [CRYBA1] | 3.19 ± 0.24 | 3.42 ± 0.38 | – | –
IKVTSATSVNLGILTADLYSLFVG [SLC35F2] | 3.07 ± 0.36 | 2.92 ± 0.42 | – | –
QELSEVLELLSAPELKSLAKTFHL [FAN1] | 2.26 ± 0.46 | 2.25 ± 0.14 | – | –
